The results in this text go back to patent US20120258107A1.

The target in assay [1] is rat CD163 on cells (rat). Nature of the assay: flow cytometry, rat peritoneal macrophages, ED2-FITC.
Assay [2] deals with rat CD163 on cells (rat). Nature of the assay: flow cytometry of rat peritoneal macrophages, anti-rat CD163-FITC (ED2) against anti-rat CD172a-PE (ED9).
Assay [3] concerns the target rat CD163 on cells (rat). Nature of the assay: cell-based or functional assay.
Assay [4] concerns the target human CD163 on cells (human) (UniProt Q86VB7). Nature of the assay: 125I-labelled mAb on stable CD163 transfected Flp-In CHO cells (1.23% on non-transfected cells).
Assay [5] has the same target. Nature of the assay: flow cytometry, whole blood, heparin as anticoagulant.
For assay [6] the target is unchanged. Nature of the assay: quantitative flow cytometry, whole blood, EDTA.
Assay [7] shares this target. Nature of the assay: quantitative flow cytometry, Quantibrite PE beads, EDTA whole blood.
For assay [8] the target is unchanged. Nature of the assay: flow cytometry, R-PE mAb, freshly drawn EDTA whole blood.
The target is the same in assay [9]. Nature of the assay: flow cytometry, PBMC after density gradient centrifugation.
For assay [10] the target is unchanged. Nature of the assay: quantitative flow cytometry, whole blood, heparin.
For assay [11] the target is unchanged. Nature of the assay: flow cytometry, whole blood, EDTA as anticoagulant.
Assay [12] shares this target. Nature of the assay: quantitative flow cytometry, PBMC after density gradient centrifugation.
Assay [13] concerns the target purified recombinant CD163 immobilized on a Biacore chip (human) (UniProt Q86VB7). Nature of the assay: SPR, immobilized CD163, 2 mM free Ca2+.
For assay [14], the target named is human CD163 on cells (human) (UniProt Q86VB7). Nature of the assay: 125I-labelled mAb on stable CD163 transfected Flp-In CHO cells (1.47% on non-transfected cells).
Assay [15] shares this target. Nature of the assay: flow cytometry, whole blood, citrate as anticoagulant.
Assay [16] has the same target. Nature of the assay: quantitative flow cytometry, whole blood, citrate.
Assay [17] shares this target. Nature of the assay: flow cytometry on peripheral blood dendritic cells, negative staining control.
The target is the same in assay [18]. Nature of the assay: quantitative flow cytometry, background staining, EDTA whole blood.
The target is the same in assay [19]. Nature of the assay: 125I-labelled mAb on stable CD163 transfected Flp-In CHO cells (0.97% on non-transfected cells).
The target in assay [20] is rat CD163 on cells (rat). Nature of the assay: flow cytometry of rat peritoneal macrophages, negative control staining with IgG-FITC.
In assay [21] the target is human CD163 on cells (human) (UniProt Q86VB7). Nature of the assay: flow cytometry, PE mAb, CD14-ILT3+ dendritic cells in whole blood.
For assay [22], the target named is purified recombinant CD163 immobilized on a Biacore chip (human) (UniProt Q86VB7). Nature of the assay: SPR, immobilized CD163, 10 mM EDTA.
Assay [23] concerns the target human CD163 on cells (human) (UniProt Q86VB7). Nature of the assay: flow cytometry, CD163low subset of peripheral blood dendritic cells.
Assay [24] has the same target. Nature of the assay: flow cytometry, CD14+ILT3+HLA-DR+ monocytes stained positive for CD163.
Assay [25] has the same target. Nature of the assay: flow cytometry, CD163high subset of peripheral blood dendritic cells.
For assay [26] the target is unchanged. Nature of the assay: flow cytometry, PE mAb, peripheral blood dendritic cells.

human CD163 on cells (human), sequence (Q86VB7 42-1156): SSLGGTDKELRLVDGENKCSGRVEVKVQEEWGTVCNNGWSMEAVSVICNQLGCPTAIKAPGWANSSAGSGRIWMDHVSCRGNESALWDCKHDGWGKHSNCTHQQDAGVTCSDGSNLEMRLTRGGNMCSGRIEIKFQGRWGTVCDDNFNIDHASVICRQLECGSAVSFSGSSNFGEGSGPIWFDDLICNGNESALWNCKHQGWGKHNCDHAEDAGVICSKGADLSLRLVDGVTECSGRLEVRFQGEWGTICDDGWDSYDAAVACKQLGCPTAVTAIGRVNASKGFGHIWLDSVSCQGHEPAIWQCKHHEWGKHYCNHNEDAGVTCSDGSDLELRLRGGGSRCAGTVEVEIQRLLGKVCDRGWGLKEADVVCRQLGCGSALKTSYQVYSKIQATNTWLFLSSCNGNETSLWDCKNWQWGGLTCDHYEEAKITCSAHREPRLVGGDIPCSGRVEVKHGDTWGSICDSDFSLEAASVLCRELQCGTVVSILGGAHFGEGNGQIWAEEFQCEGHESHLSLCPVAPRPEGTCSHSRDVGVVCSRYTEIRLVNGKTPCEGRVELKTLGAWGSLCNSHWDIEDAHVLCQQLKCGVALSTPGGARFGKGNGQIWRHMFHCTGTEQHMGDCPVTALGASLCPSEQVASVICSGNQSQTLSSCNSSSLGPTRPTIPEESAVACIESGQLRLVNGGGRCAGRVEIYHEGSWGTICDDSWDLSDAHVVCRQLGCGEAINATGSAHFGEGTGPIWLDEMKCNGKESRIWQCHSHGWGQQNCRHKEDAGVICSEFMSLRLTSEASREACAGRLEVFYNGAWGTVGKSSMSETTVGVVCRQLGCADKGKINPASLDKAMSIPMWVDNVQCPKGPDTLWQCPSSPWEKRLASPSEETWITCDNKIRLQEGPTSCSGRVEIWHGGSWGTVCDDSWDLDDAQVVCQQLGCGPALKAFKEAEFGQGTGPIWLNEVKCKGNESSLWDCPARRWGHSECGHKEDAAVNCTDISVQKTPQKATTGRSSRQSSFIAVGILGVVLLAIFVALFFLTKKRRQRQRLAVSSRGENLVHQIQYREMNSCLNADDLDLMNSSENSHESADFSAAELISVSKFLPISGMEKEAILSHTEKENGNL
purified recombinant CD163 immobilized on a Biacore chip (human), sequence (Q86VB7 42-1050 limits assumed): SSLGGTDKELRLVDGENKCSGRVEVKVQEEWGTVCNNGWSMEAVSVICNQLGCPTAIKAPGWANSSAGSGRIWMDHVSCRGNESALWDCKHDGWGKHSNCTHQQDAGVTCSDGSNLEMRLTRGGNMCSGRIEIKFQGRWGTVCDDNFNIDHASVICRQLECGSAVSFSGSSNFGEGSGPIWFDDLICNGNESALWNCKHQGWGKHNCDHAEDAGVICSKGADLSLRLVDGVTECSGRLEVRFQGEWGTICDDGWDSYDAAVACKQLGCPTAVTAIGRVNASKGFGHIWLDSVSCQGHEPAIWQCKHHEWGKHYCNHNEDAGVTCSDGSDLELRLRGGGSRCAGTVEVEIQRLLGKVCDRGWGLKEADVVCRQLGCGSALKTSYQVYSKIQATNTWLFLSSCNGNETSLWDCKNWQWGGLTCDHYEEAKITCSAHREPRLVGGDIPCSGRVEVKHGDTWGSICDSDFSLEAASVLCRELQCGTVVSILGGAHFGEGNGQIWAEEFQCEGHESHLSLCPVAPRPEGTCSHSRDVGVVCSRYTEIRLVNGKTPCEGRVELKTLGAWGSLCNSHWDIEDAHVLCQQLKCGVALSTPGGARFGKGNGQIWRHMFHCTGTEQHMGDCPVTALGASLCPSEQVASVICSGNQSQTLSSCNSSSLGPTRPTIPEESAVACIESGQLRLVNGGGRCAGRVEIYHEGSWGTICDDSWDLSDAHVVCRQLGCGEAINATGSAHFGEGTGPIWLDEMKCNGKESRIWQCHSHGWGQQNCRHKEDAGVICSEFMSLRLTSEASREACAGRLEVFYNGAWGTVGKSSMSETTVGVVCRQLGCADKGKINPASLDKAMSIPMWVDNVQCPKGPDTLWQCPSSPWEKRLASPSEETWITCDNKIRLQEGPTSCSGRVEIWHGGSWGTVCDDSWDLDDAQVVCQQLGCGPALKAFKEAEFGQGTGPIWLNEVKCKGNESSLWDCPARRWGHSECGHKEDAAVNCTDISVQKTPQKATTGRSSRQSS

As for Anti-rat CD163 ED2 (antibody), the fraction of peritoneal macrophages CD163 positive with rat CD163 on cells (rat) [1] came out at 42%. Further, in the assay with rat CD163 on cells (rat) [2], the % of cells in the lower right quadrant (CD172a PE negative, CD163 FITC positive) was determined as 0.01% and the % of cells in the upper right quadrant (CD172a PE positive, CD163 FITC positive) came out at 42.9%.

For the substance ED2-NHS-dexamethasone (antibody), in the assay with rat CD163 on cells (rat) [3], the level of TNFα suppression after 15 minutes of incubation, LPS stimulated rat spleen cells, against free dexamethasone turned out to be 2 fold and the suppressive effect on LPS mediated TNFα in vitro, rat spleen cells, against free dexamethasone was 2 fold.

As for “Anti-CD163 (GHI/61) (antibody, non-transfected cells)”, in assay [4], the percentage of cell-associated radioactivity amounted to 1.23%.

Regarding Anti-CD163 (RM3/1) (antibody), the fraction of CD14+ monocytes stained positive for CD163 in assay [5] amounted to 3.33%; in assay [8], 0.33%; in assay [9] it was 2.5%; in assay [11], 0.33%; in assay [15], 12.5%. The density of CD163 receptors per monocyte (PE antibodies bound per cell) in assay [6] turned out to be 86 per monocyte; in assay [7] it was 101 per monocyte; in assay [10], 210 per monocyte; in assay [12], 132 per monocyte; in [16], 207 per monocyte. Further, in assay [13], the Kd was 0.0006 µM. Also, in [14], the percentage of cell-associated radioactivity amounted to 7.77%.

In [17], “R-PE-conjugated Mouse IgG1, k isotype control (MCG1) (antibody)” showed an MFI of 1.23 MFI. This substance also returned a density of CD163 receptors per monocyte (PE antibodies bound per cell) in assay [18] of 94 per monocyte.

In the case of Anti-CD163 (R-20) (antibody), the fraction of CD14+ monocytes stained positive for CD163 in [5] was 63%; in [8], 75.9%; in assay [9] it was 54.4%; in [11] it was 75.9%; in assay [15], 74.7%. The density of CD163 receptors per monocyte (PE antibodies bound per cell) was determined as 1760 per monocyte in assay [6]; 1650 per monocyte in assay [7]; 3020 per monocyte in [10]; 837 per monocyte in assay [12]; 1990 per monocyte in assay [16]. Moreover, the percentage of cell-associated radioactivity in assay [19] came out at 19%.

With IgG-FITC (antibody), in the assay with rat CD163 on cells (rat) [20], the % of cells in the lower right quadrant (IgG FITC positive) is 0.41% and the % of cells in the upper right quadrant (IgG FITC positive, FL2 positive) amounted to 0.06%.

In the case of Anti-CD163 (GHI/61) (antibody), the fraction of CD14+ monocytes stained positive for CD163 in assay [5] turned out to be 0.82%; in assay [8] it was 63%; in [9], 1.26%; in assay [11], 63%; in [15], 64.4%. Besides, the density of CD163 receptors per monocyte (PE antibodies bound per cell) in assay [6] came to 1030 per monocyte; in assay [7] it was 1030 per monocyte; in assay [10], 58.3 per monocyte; in [12], 108 per monocyte; in [16], 1150 per monocyte. This substance yielded a fraction of peripheral blood dendritic cells recognized in assay [21] of 10.5%. Besides, the Kd in assay [22] worked out at 0.029 µM. The MFI was 4.2 MFI in [23], 34.6 MFI in assay [25] and 22.3 in assay [26]. This substance yielded a percent of cells stained positive in assay [24] of 88%.

In the assay with rat CD163 on cells (rat) [3], ED2-MVCP-dexamethasone (antibody) registered a suppressive effect on LPS mediated TNFα in vitro, rat spleen cells, against free dexamethasone of 3 fold.
